Experimental data from PMC9241285.

Biological target: recombinant human Aβ42 sodium hydroxide (NaOH) salt (human) (UniProt P05067)

recombinant human apoE4, sequence (P02649 19-317): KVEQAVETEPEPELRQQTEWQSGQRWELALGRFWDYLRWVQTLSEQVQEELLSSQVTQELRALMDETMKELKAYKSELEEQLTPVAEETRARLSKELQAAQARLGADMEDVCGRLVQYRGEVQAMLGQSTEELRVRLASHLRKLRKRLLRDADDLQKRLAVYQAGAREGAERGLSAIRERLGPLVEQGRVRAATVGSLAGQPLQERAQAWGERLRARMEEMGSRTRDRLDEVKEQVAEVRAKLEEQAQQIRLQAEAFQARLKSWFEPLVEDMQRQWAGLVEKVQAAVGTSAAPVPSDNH

recombinant human apoE4 (from UniProt P02649 19-317) (natural protein)
> 30%: reduction of apoE4-catalyzed Aβ42 fibrillization (ThT, HTS assay) by imipramine at 0.25, 2.5 and 25 μM; no effect on Aβ42 alone | reduction of apoE4-catalyzed Aβ42 fibrillization (ThT, HTS assay) by olanzapine at 0.25, 2.5 and 25 μM; no effect on Aβ42 alone | reduction of apoE4-catalyzed Aβ42 fibrillization (ThT, HTS assay) by sulfacetamide at 0.25, 2.5 and 25 μM; no effect on Aβ42 alone
